Measurements as given in patent publication US20230220073A1 (UCL BUSINESS, published 2023).

B1: Clone V chimeric ROR1 antibody (antibody, V domains shown)
VH: EVQLVESGGGLVQPGRSLKLSCAASGFSFSNYGMHWIRQAPTKGLEWVASISPTGGNTYYRDSVKGRFTISRDNTKSTLYLQMDSLRSEDTATYYCATDDLYYSGPFAYWGQGTLVTVSS
VL: DIKMTQSPSFLSASVGDRVTINCKASQNITRFLNWYQQELGEAPTLLIYNTNNLQTGIPSRFSGSGSGTDFTLTISSLQPEDVATYFCLQHGSRPRTFGGGTKLELK
B2: Clone Mu chimeric ROR1 antibody (antibody, V domains shown)
VH: QVQLQQSGAELVKPGSSVRISCKASGYTITSYDMHWIKQQPGNGLEGIGWIHPGNGKIKYNQKFNGKATLTVDKSSSTAYMQLSSLTSEDSAVYFCARGTTRVFPWFAYWGQGTLVTVSS
VL: QFTLTQPKSVSGSLRSTITIPCERSSGDIGDNYVSWYQQHLGRPPINVIYADDQRPSEVSDRFSGSIDSSSNSASLTITNLQMDDEADYFCQSFDSNFDIPVFGGGTKLTVL
B3: Clone F chimeric ROR1 antibody (antibody, V domains shown)
VH: EVQLVESGGGLVQPGRSLKLSCAASGFIFSEHNMAWVRQAPKKGLEWVATISDDGRNTYYRDSMRGRFTISRENARSTLYLQLDSLRSEDTATYYCASHRYNLFDSWGQGVMVTVSS
VL: DIQMTQSPSFLSASVGDRVTINCKASQNIDRYLNWYQQKLGEAPKRLLYNTNKLQTGIPSRFSGSGSATDFTLTISSLQPEDFATYFCLQYNSLPLTFGSGTKLEIK
B4: Clone A chimeric ROR1 antibody (antibody, V domains shown)
VH: QVQLQQSGTELVKPASSVRISCKASGYTLTTNYMHWIRQQPGNGLEWIGWIYPGNGNTKFNHKFDGRTTLTADKSSSIVYMQLSSLTSEDSAVYFCARSDFDYWGQGVMVTVSS
VL: DIQMTQSPSSMSASLGDRVTFTCQASQDIGNNLIWFQQKPGKSPRPLMYFATSLANGVPSRFSGSRSGSDYSLTISSLESEDLADYHCLQYREYPLTFGSGTKLDLK
notes: also called SA1

What was measured:
SKW 6.4 GFP = molecular target: T1, SKW 6.4 GFP (human, UniProt Q01973); assay: flow cytometry, SKW 6.4 GFP cells stained at 4 C, anti-human Fc-Dylight 647
T1 construct: on the cell surface; also called ROR1 endogenously expressed on SKW 6.4 cells
T1 sequence (Q01973 30-937 limits assumed): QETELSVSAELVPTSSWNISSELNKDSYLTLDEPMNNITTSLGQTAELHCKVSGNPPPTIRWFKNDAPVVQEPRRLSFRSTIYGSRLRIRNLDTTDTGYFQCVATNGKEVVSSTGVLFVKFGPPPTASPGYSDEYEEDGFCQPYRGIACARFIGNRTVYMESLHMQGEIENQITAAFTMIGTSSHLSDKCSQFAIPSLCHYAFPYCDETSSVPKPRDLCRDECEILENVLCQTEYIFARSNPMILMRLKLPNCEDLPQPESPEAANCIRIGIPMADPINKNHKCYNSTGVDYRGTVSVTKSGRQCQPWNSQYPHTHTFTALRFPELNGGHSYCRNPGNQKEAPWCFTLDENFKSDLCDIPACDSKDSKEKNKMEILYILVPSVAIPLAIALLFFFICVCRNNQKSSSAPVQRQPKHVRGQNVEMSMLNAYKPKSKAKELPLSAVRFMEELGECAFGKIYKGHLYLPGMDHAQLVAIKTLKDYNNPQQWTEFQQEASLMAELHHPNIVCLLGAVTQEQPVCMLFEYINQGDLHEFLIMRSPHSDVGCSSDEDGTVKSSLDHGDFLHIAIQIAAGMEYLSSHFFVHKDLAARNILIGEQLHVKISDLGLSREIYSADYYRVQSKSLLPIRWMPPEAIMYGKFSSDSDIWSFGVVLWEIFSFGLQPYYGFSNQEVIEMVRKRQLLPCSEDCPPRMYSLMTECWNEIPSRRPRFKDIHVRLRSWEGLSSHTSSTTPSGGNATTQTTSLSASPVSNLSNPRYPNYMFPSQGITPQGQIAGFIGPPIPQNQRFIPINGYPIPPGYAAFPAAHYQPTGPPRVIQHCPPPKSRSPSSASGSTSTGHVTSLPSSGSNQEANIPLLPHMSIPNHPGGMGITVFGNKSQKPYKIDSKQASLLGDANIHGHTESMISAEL
Description: FIG. 8A-FIG. 8C: Internalisation of ROR1 antibodies on SKW 6.4 GFP cells by flow cytometry. SKW 6.4 GFP cells were stained at 4° C. and either kept on ice (blue line) or incubated at 37° C. (yellow line) for 1 h. […] Clones A, F and Mu (purple circle) were selected for further investigation. Clones R12 and 4a5 (in black) served as negative and positive control, respectively. Anti-human Fc-Dylight 647 was used as secondary antibody and as staining control (red line). MFI=Median Fluorescence Intensity.
After 30 min, cells were washed with ice-cold PBS, and either left on ice or incubated at 37° C. for 1 h. Subsequent staining with an anti-human Fc-Dylight 647 was used to detect any primary antibody that had remained on the cell surface. Previously reported clones R12 and 4a5 were also included in this assay as negative and positive controls, respectively (FIG. 8).

[1] = molecular target: T2, ROR1 Frizzled domain alone, on transduced SUP-T1 cells (human, UniProt Q01973 165-299); assay: flow cytometry, transduced SUP-T1 cells, anti-human Fc-Dylight647
T2 construct: domain: Fz; also called Fz; ROR1-Fz domain
T2 sequence (Q01973 165-299): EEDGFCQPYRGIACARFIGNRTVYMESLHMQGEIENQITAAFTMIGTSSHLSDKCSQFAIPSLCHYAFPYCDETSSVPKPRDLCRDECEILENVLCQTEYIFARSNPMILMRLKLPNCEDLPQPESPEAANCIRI
Description: (§1) FIG. 1A-FIG. 1C: Identification of ROR1 binding domain: FIG. 1A: SUP-T1 cells were transduced with retroviral vectors containing either the full extracellular portion of ROR1 or only one or two extracellular domains. Non-transduced SUP-T1 (SUP-T1 NT) cells served as negative control. FIG. 1B: All 12 chimeric antibodies and FIG. 1C all 10 positive clones in scFv format were incubated with SUP-T1 NT and the new stable cell lines at 4° C. for 30 min. Cells were washed and stained with a secondary antibody (anti-human Fc-Dylight647), which was used as negative control. eROR1=extracellular ROR1, Ig-like=Immunoglobulin-like domain, Fz=Frizzled domain, Kg=Kringle domain.

Kringle (Kg) = molecular target: T3, Kringle (Kg) (human, UniProt Q01973); assay: as above
T3 construct: also called ROR1 Kringle domain alone, on transduced SUP-T1 cells
T3 sequence (Q01973 312-391 limits assumed): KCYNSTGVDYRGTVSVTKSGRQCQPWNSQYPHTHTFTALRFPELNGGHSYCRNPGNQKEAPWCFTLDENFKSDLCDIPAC
Description: as §1

[2] = molecular target: T4, ROR1 Ig-like domain alone, on transduced SUP-T1 cells (human, UniProt Q01973 30-147, limits assumed); assay: as above
T4 construct: domain: Ig-like; also called immunoglobulin domain
T4 sequence (Q01973 30-147 limits assumed): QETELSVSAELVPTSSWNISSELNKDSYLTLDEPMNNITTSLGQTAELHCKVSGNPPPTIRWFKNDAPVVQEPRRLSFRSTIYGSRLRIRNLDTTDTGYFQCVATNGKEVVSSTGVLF
Description: as §1

[3] = molecular target: T5, ROR1, full extracellular region, on transduced SUP-T1 cells (UniProt Q01973 30-406); assay: as above
T5 construct: extracellular domain; also called eROR1; extracellular ROR1
T5 sequence (Q01973 30-406): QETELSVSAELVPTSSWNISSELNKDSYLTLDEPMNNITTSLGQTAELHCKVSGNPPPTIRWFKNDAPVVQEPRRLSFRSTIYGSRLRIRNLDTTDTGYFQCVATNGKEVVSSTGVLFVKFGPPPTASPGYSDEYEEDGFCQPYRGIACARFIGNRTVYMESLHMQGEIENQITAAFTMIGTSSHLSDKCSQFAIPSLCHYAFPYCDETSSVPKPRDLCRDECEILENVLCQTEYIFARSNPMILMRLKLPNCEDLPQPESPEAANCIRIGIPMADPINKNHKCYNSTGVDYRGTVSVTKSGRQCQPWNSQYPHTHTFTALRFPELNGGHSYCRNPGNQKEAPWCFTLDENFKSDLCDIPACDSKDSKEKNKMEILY
Description: as §1

[4] = molecular target: T6, ROR1 Ig-like+Frizzled (Fz) domains, on transduced SUP-T1 cells (UniProt Q01973 30-299, limits assumed); assay: as above
T6 construct: domain: Ig-like+Frizzled (Fz); also called Ig-Fz protein
T6 sequence (Q01973 30-299 limits assumed): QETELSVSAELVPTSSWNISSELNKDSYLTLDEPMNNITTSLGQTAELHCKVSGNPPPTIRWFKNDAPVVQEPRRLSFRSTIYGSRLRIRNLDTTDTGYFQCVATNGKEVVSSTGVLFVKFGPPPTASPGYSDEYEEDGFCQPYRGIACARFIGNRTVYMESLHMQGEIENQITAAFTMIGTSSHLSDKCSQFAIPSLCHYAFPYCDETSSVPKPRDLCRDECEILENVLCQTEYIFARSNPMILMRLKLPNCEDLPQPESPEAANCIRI
Description: as §1

Fz+Kg = molecular target: T7, Fz+Kg (human, UniProt Q01973); assay: as above
T7 construct: also called ROR1 Frizzled+Kringle domains, on transduced SUP-T1 cells
T7 sequence (Q01973 165-391 limits assumed): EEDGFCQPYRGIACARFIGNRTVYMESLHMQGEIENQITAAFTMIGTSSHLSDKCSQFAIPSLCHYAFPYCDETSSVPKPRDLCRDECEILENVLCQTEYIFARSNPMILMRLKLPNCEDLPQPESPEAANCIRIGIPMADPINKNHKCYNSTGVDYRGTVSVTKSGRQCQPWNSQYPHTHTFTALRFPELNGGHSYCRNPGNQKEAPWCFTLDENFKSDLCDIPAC
Description: as §1

CLL2 ROR1high = molecular target: T8, CLL2 ROR1high (human, UniProt Q01973); assay: flow cytometry, cells stained at 4 C, ahFc-DyLight647
T8 construct: on the cell surface; also called ROR1 on primary CLL cells with high ROR1
T8 sequence (Q01973 30-937 limits assumed): as the sequence (Q01973 30-937 limits assumed) above
Description: FIG. 9A-FIG. 9C: Internalisation of ROR1 MAbs on SKW 6.4 GFP and CLL cells by flow cytometry. Cells were stained at 4° C. and either left on ice or incubated at 37° C. for 15 min, 1 h and 2 h. Cells were then analysed using an anti-human IgG as secondary antibody. FIG. 9A-FIG. 9B: Histograms and FIG. 9C: Trends over time showing the MFI reduction over time are presented. The % of MFI reduction was calculated as described in the Materials and Methods chapter. Phenylarsine oxide (PAO), an endocytosis inhibitor, acted as negative control (PAO-120).
To distinguish between dissociation and internalisation, SKW 6.4 cells were incubated on ice in the presence of our selected antibodies for 30 min. Cells were then washed with ice-cold PBS and either left on ice or incubated at 37° C. for 15 min, 1 h or 2 h. For the 2 h time point, a duplicate sample was incubated with PAO (10 μM). Immediately after incubation, all samples were washed with ice-cold PBS and stained with an anti-human Fc-Dylight 647 for 30 min. Cells were analysed by flow cytometry and MFI reduction was calculated.
Samples were processed as mentioned above and analysed by flow cytometry. […] This was even clearer on CLL cells, where virtually no internalisation of clone V was detected.

[5] = molecular target: T9, ROR1 Fz domain with Q(261)H and I(254)V, on transduced SUP-T1 cells (human, UniProt Q01973 165-299); assay: flow cytometry on SUP-T1 cells transduced with mutated ROR1 Fz domain
T9 construct: domain: Fz
T9 sequence (Q01973 165-299 I254V/Q261H): as the sequence (Q01973 165-299) above, with I90V, Q97H counted along it

[6] = molecular target: T5, ROR1, full extracellular region, on …; assay: flow cytometry, ROR1-transduced cells, single staining; Q1 = ahFc+ only; amFc+ahFc alone Q1 0.060
Description: FIG. 7A-FIG. 7C: Competition assay by flow cytometry. Clone A (SA1) in murine IgG2a, k (mSA1) along with other ROR1 MAbs in human IgG1, k-including previously published 4a5, D10 and R12 clones—were used for staining ROR1-transduced cells. MAb staining was done as FIG. 7A-FIG. 7B: single agents or FIG. 7C: in combination with clone A (mSA1). Anti-human IgG (450) and anti-mouse IgG (DyLight649) were used as secondary antibodies. Combined staining using clones F and mSA1 acted as negative control for overlapping epitopes.
In FIG. 7C, three different columns are presented. Dot plots on the first column correspond to ROR1 binding assessed when SUP-T1 ROR1 cells were stained with clone A (SA1) (mIgG) in the first instance. After a washing step, cells were stained with a competitor antibody (hIgG), followed by another washing step. Both antibodies were then detected by a third staining step using the appropriate secondary antibodies. In the second column, a similar approach was taken when staining these cells, except that this time it was the antibody in hIgG1, k format the one used for the first staining step, followed by clone A (SA1) staining. On the third column, both antibodies were used at the same time.

Q(261)H mutation = Q(261)H mutation (human, UniProt Q01973); assay: flow cytometry, Q(261)H-transduced SUP-T1 cells (eGFP), DyLight647
Q(261)H mutation, sequence (Q01973 165-299 Q261H limits assumed): as the sequence (Q01973 165-299) above, with Q97H counted along it
Description: FIG. 6A-FIG. 6D: Epitope mapping of ROR1 clone F MAb. FIG. 6A-FIG. 6B: Reactivity of clone F with ROR1-derived overlapping peptides was analyzed by ELISA. Since no linear epitope was identified, FIG. 6C-FIG. 6D: amino acid substitution of non-conserved regions within the Fz domain was performed in ROR1-Fz transduced cell lines. Circles indicate essential amino acids for antibody binding. One out of three experiments is shown. Experiments were done in triplicates. Error bars represent SD.
(§2) Retroviral vectors were used for transducing SUP-T1 cells and transduction was tested by GFP expression using flow cytometry.

[7] = molecular target: T10, Histidine-tagged ROR1 protein (extracellular region) (UniProt Q01973 30-406); assay: SPR, Biacore X100; antibody captured by anti-human IgG1 on CM5 chip, His-tagged ROR1 extracellular portion injected at 1.5-100 nM
T10 construct: extracellular domain; also called extracellular portion of ROR1 bearing a Histidine tag; not shown: Histidine tag
T10 sequence (Q01973 30-406): as the sequence (Q01973 30-406) above
Description: FIG. 3: KD determination by surface plasmon resonance. Sensorgrams obtained using a Biacore X100 instrument are shown. Briefly, ROR1 antibodies were immobilized using a CM5 chip and seven different concentrations of the Histidine-tagged ROR1 protein (extracellular region) were injected. Concentrations ranged from […].
We undertook surface plasmon resonance evaluation using a Biacore X100 instrument. ROR1 chimeric antibodies were immobilised using an anti-human IgG1 antibody capture kit and a CM5 sensor chip. Seven different concentrations, ranging from 1.5-100 nM, of the extracellular portion of ROR1 bearing a Histidine tag were then injected.

[8] = molecular target: T11, ROR1 Ig-like domain with NISSE at residues 47 to 51 replaced by FQDDL, on transduced SUP-T1 cells (human, UniProt Q01973 30-147, limits assumed); assay: flow cytometry on SUP-T1 cells transduced with mutated ROR1 Ig-like domain
T11 construct: domain: Ig-like; also called five amino acid substitution
T11 sequence (Q01973 other isoform, or with tags, fused parts or gaps limits assumed): as the sequence (Q01973 30-147 limits assumed) above, with N18F, I19Q, S20D, S21D, E22L counted along it

I(48)Q mutation = molecular target: T12, I(48)Q mutation (human, UniProt Q01973); assay: flow cytometry, I(48)Q-transduced cells (eGFP), DyLight647
T12 construct: The text speaks of the Ig-like domain; the axis on sheet D00010 reads ROR1 Ig-like+Fz+Kg; also called ROR1 with I(48)Q in the Ig-like domain, on transduced SUP-T1 cells
T12 sequence (Q01973 other isoform, or with tags, fused parts or gaps limits assumed): as the sequence (Q01973 30-406) above, with I19Q counted along it
Description: FIG. 5A-FIG. 5H: Epitope mapping of ROR1 clone A MAb. FIG. 5A-FIG. 5B: Reactivity of clone A with ROR1-derived overlapping peptides was analyzed by ELISA. FIG. 5C-FIG. 5H: Amino acid substitution within the epitope binding region was performed in ROR1-transduced cell lines. Also, the previously described clones R12, 4a5 and D10 were also included for comparison. Red circles indicate essential amino acids for antibody binding. One out of three experiments is shown. Experiments were done in triplicates. Error bars represent SD.
as §2

Binder | binding result (SKW 6.4 GFP) | binding result [1] | binding result (Kringle (Kg)) | binding result [2] | binding result [3] | binding result [4] | binding result (Fz+Kg) | binding result (CLL2 ROR1high) | binding result [5] | Q1 quadrant figure [6] | binding result (Q(261)H mutation) | Kd [7] | koff [7] | kon [7] | binding result [8] | binding result (I(48)Q mutation)
B1 | binds | no binding | no binding | no binding | binds | binds | no binding | binds | – | – | – | – | – | – | – | –
B2 | – | no binding | no binding | binds | binds | binds | no binding | – | – | – | – | – | – | – | – | –
B3 | – | – | no binding | no binding | – | – | – | – | no binding | 85 | no binding | 5.46 nM | 0.000836 s⁻¹ | 153000 M⁻¹ s⁻¹ | – | –
B4 | – | no binding | no binding | – | – | – | no binding | – | – | – | – | 1.81 nM | 0.00104 s⁻¹ | 577000 M⁻¹ s⁻¹ | no binding | no binding
